Data published in publication PMC10803253, “Structural insights into the iron nitrogenase complex” (Nature Structural & Molecular Biology, 2023).

B3: Fe nitrogenase reductase component AnfH2 (Rhodobacter capsulatus) (enzyme, UniProt Q07942 1-275, looked up)
chain: MTRKIAIYGKGGIGKSTTTQNTAAALAFFHEKNVFIHGCDPKADSTRLILGGLPQQTVMDTLRIEGAERVTVDKVVKTGFKDIRCVESGGPEPGVGCAGRGVITAIDLMEENEAYSEDLDFLFFDVLGDVVCGGFAMPIRDGKAEEVYIVASGEMMAIYAANNICKGLAKYARQSGVRLGGIICNSRNVDGEKEFLEEFTKAIGTKMIHFVPRDNIVQKAEFNKQTVTEFQPEANQAQEYRELGRKIIENEDFVIPKPLAMDELEAMVVKYGLMD
notes: AnfH, nitrogenase iron protein of the Fe-only nitrogenase, Rhodobacter capsulatus B10S; the anfHDGK operon was amplified whole from genomic DNA; Homodimer with one [Fe4S4] cluster between the two chains; in the trapped complex one MgADP·AlF3 per chain; His6-tag inserted without any linker; no cleavage step is described; also called H subunit

How the values were obtained:
[1] = molecular target: T1, AnfD, D subunit of the Fe nitrogenase catalytic component (Rhodobacter capsulatus) (Rhodobacter capsulatus, UniProt Q07933 1-526); experiment: cryo-EM structure; catalytic component Anf(DGK)2 alone with CHAPSO (0.4% m/V) added on the grid right before plunge freezing; 2.49 Å, C2 symmetry; details: both partners purified
T1 construct: AnfD, alpha (D) subunit of the Fe-only nitrogenase, Rhodobacter capsulatus B10S; the anfHDGK operon was amplified whole from genomic DNA; Single subunit, written for the subunit-to-subunit rows of the complexes solved here

[2] = molecular target: T1, AnfD, D subunit of the Fe nitrogenase …; experiment: mass photometry; individual nitrogenase components; 500 nM stock diluted 0.5 µl into 19.5 µl of 150 mM NaCl, 50 mM Tris pH 7.8, 10% glycerol, 10 mM dithionite; details: both partners purified
[3] = molecular target: B3; experiment: cryo-EM structure; ADP·AlF3-stabilized Anf(DGK)2(H2)2 complex after SEC, 1 mg/ml, anaerobic plunge freezing, no detergent; 2.35 Å, C2 symmetry; details: both partners purified
[4] = molecular target: T2, Fe nitrogenase catalytic component Anf(DGK)2 (Rhodobacter capsulatus) (Rhodobacter capsulatus, UniProt Q07933 1-526; Q07934 1-115; Q07935 1-460); experiment: SEC; 4 nmol catalytic and 32 nmol reductase component, 1 h at 30 °C in 100 mM MOPS, 50 mM Tris, 100 mM NaCl pH 7.3, 5 mM dithionite, 4 mM NaF, 0.2 mM AlCl3, 8 mM MgCl2, 1 mM ATP (ADP·AlF3 trap); SEC in 50 mM Tris pH 7.8, 200 mM NaCl, 5 mM dithionite; anaerobic; details: both partners purified
T2 construct: AnfD, alpha (D) subunit of the Fe-only nitrogenase, Rhodobacter capsulatus B10S; the anfHDGK operon was amplified whole from genomic DNA; AnfG, delta (G) subunit of the Fe-only nitrogenase, Rhodobacter capsulatus B10S; AnfK, beta (K) subunit of the Fe-only nitrogenase, Rhodobacter capsulatus B10S; Heterohexamer with two P-clusters [Fe8S7] and two FeFeco [Fe8S9C-(R)-homocitrate]; Strep-tag II …

[5] = molecular target: the molecule itself; experiment: mass photometry; individual nitrogenase components; 500 nM stock diluted 0.5 µl into 19.5 µl of 150 mM NaCl, 50 mM Tris pH 7.8, 10% glycerol, 10 mM dithionite

B1: AnfK, K subunit of the Fe nitrogenase catalytic component (Rhodobacter capsulatus) (natural protein, UniProt Q07935 1-460, looked up)
chain: MTCQVTQKAREGTINPIFTCQPAGAQFASIGIKDCIGIVHGGQGCVMFVRLLISQHMKESFEIASSSVHEDGAVFGALDRVETAVEVLLTRYPDVKVVPIITTCSTEIIGDDVDGLLSKLEDELLPTKFPGREVHLLTVHCPSFVGSMITGYDKAVHDFVKKFATKDEPSDKINLITGWVNPGDVKELKHLLEVMEVKANVLFEVESFDSPLMPDLEHHSHGSTTIEDLRDTANAKGTIALNRYEGMKAADYLKKKFKVPAVIGPTPVGIRNTDAFLKAVSEMTGQPIPAQLVKERGLALDAIADIGHMFLADKRVAIYANPDLAIGLTEFCLDLEMKPKLLLLGDDNSGYVKDPRVVALQENAPDLEIVTNADFWDLESRIQQGLELDLILGHSKGRFISIDYKVPMVRVGFPTYDRAGMYRHPVLGYGGAMFLAETMANTLFADMEAKKNKEWILNVW
notes: AnfK, beta (K) subunit of the Fe-only nitrogenase, Rhodobacter capsulatus B10S; the anfHDGK operon was amplified whole from genomic DNA; Single subunit, written for the subunit-to-subunit rows of the complexes solved here
[1]
  binding result: binds

B2: AnfG, G subunit of the Fe nitrogenase catalytic component (Rhodobacter capsulatus) (natural protein, UniProt Q07934 1-115, looked up)
chain: MTDISEKLDPLVDYIMKNCLWQFNSRGWDRLKQNAGILSQTCEILCGEEPVHETAMDRCYWVDAVILSRAYKARFPWLMAMTKPEIKSLFKALHEKIDHLTVHGSLNTELTVPHY
notes: AnfG, delta (G) subunit of the Fe-only nitrogenase, Rhodobacter capsulatus B10S; the anfHDGK operon was amplified whole from genomic DNA; Single subunit, written for the subunit-to-subunit rows of the complexes solved here
[2]
  binding result: binds
[3]
  binding result: binds

## B3
[4]
  stoichiometry N: 2 AnfH2 per Anf(DGK)2
[5]
  stoichiometry N: 2 subunits in the oligomer
